US20150024453A1, “INTEGRATED PROCESS FOR DUAL BIOCATALYTIC CONVERSION OF CO2 GAS INTO BIO-PRODUCTS BY ENZYME ENHANCED HYDRATION AND BIOLOGICAL CULTURE” (CO2 SOLUTIONS INC., priority 2012, published 2015)

Test: Tests of carbonic anhydrase activity in carbonate absorption solutions
Assay type: biochemical
Source text: The absorption solution that is fed to the enzymatic bicarbonate production unit may be a sodium carbonate solution having a sodium carbonate concentration between about 0.3M and about 2.4M (temperature being between about 30 t for a concentration of about 2.5M) or a potassium carbonate solution having a potassium carbonate concentration between about 1M and about 2M. Tests have confirmed that carbonic anhydrase has good activity in sodium carbonate between 0.3M and 0.5M and in potassium carbonate at 1.45M. Halophile-type carbonic anhydrase, with elevated resistance to salt, may be used for higher concentrations. As opposed to carbonates, bicarbonates are less soluble (two times less approximately) and, therefore, if precipitation occurs, it would be of bicarbonate salts rather than carbonate salts. Cooling the ion loaded solution exiting the enzymatic CO2 capture unit may also encourage precipitation, as the solubility of bicarbonates and carbonates would be lowered. For sodium bicarbonate, temperature may be carefully adjusted since below about 30° C., a solution at 2.5M would not be soluble. The following Solubility Table may be used to set, adjust or control the carbonate or bicarbonate concentration as well as temperature in the enzymatic bicarbonate production and CO2 capture unit: […]

## carbonic anhydrase
In potassium carbonate at 1.45M
  enzyme activity: good activity
In sodium carbonate between 0.3M and 0.5M
  enzyme activity: good activity
